# From publication PMC4568413, “Functional analysis of the sporulation-specific diadenylate cyclase CdaS in Bacillus thuringiensis” (Frontiers in Microbiology, 2015)
# Molecular target: the molecule itself
# Experiment: SEC; Superdex 200HR 10/30; about 10 mg/mL CdaS loaded (1 mL); 25 mM Tris-HCl pH 8.0, 150 mM NaCl; 0.5 mL/min; calibrated with Bio-Rad protein standards
protein,measurement,value
"CdaS protein from Bacillus thuringiensis BMB171 (enzyme, UniProt D5TM67 1-201, looked up, CdaS (cyclic di-AMP synthase, sporulation-specific; N-terminal YojJ domain and C-terminal DAC domain) of Bacillus thuringiensis BMB171; full length, the truncated constructs end at residue 201; cdaS gene 606 bp; theoretical monomer mass 23.3 kDa; Cloned in NcoI and XhoI sites of pET28b; also called B. thuringiensis CdaS; wild type CdaS; source: E. coli BL21(DE3) harboring pET28b-cdaS, purified …) MHEWGLSEELKIQTKQMIEIAEKELSIMRNAIDKEDECILCKMEDIHHMLANVQTLAATYYIQAYLSPYTESSSFITTAIQHLSARKHGALIVVERNETLEALIQTGTTLNAHLTAPLLESIFYPGNPLHDGAVLVKNNHIVSAANILPLTKSTEVDPELGTRHRAAIGLSEKSDALILVVSEETGRTSFALNGILYTISL",stoichiometry N,6
